Consider seven molecules from patent US20170305994A1 (Novo Nordisk, published 2017).

The target in assay [1] is T1, human DR3 (full length, on cells) (human, UniProt Q93038 25-417).
T1 sequence: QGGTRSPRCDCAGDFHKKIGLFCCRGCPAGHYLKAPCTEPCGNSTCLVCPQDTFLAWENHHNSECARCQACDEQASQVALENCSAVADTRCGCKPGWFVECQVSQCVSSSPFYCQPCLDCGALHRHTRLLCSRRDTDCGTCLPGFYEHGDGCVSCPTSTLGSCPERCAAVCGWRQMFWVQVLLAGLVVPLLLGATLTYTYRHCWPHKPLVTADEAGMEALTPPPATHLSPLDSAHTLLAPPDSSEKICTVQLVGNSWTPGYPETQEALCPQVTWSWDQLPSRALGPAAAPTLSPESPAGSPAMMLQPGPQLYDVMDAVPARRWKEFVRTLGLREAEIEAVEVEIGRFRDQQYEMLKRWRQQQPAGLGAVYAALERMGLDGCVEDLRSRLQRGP
Briefly: cell-based or functional assay.

Assay [2] has as its target T2, human DR3 with the death domain deleted (ΔM339-P417 of SEQ ID NO:1), expressed on CHOK1SV cells (human, UniProt Q93038 25-338).
T2 construct: also called truncated DR3; hDR3 expressing CHO cells
T2 sequence: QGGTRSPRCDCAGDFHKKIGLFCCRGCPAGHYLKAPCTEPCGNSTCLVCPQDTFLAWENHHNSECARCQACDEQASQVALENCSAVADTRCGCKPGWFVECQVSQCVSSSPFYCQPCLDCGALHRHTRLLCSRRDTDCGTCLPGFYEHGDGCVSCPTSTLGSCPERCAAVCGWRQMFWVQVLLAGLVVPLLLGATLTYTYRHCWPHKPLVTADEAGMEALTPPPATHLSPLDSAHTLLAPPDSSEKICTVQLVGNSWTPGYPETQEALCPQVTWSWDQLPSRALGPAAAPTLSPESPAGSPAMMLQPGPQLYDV
Briefly: flow cytometry competition: Fab vs TL1A on hDR3-expressing CHO cells. For orientation: In flow cytometry, cells or beads pass a laser one at a time.

The target of assay [3] is T1, human DR3 (full length, on cells). Briefly: cell-based or functional assay. This is another data set of the same source.
Assay [4] shares this target. Briefly: cell-based or functional assay. The source holds these as a separate data set.
Assay [5] has the same target. Briefly: cell-based or functional assay. The source holds these as a separate data set.
Assay [6] has the same target. Briefly: cell-based or functional assay. The source holds these as a separate data set.
For another assay, the target named is T3, DR3 (CRD1)-Fc (human).
T3 construct: Amino acids 25-71 of DR3 fused to the Fc domain of human IgG4; purified to exclude oligomers (mainly dimeric)
Briefly: SPR Biacore T200, DR3(CRD1)-Fc captured by anti-human IgG, Fab as analyte, 25 C, 1:1 model, mean of 3 surface densities. As to the method:
The experiments were performed on a Biacore T200 instrument (GE Healthcare) and analysed with the Biacore T200 Evaluation Software. Anti human IgG antibodies (human IgG capture kit from GE Healthcare) were immobilized on all flow cells of a CM5 sensor chip according to manufacturer's instructions. HBS-EP (GE Healthcare) with 0.1% human serum albumin was used as running buffer. DR3(CRD1)-Fc (SEQ ID NO:2) was captured on the chip at low surface densities between 14 and 45 RU. Fab fragments were diluted to concentrations between 90 and 0.037 nM and subsequently injected for 360 s. […] Binding curves were measured at 25° C. with a flow rate between 30 and 60 μL/min.
Regeneration was performed with 3 M […] for 2×20 s. The raw data were double referenced by subtraction of the signals from a reference flow cell without captured ligand and a buffer blank. Determination of the kinetic parameters was performed by fitting with a 1:1 binding model using the Biacore T200 Evaluation Software (GE Healthcare). Average values obtained from 3 different surface densities of DR3(CRD1)-Fc (SEQ ID NO:2) were calculated and are stated in table 14

T3 sequence (chain, as listed by the source limits assumed): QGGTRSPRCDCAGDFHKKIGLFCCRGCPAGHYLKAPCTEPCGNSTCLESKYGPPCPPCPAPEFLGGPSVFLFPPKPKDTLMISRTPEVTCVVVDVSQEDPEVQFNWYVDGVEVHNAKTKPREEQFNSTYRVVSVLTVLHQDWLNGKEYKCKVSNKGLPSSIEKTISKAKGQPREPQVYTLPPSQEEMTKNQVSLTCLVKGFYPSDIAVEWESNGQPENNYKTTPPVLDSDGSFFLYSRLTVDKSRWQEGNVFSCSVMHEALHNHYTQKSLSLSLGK

B1: 0122 (chimeric Fab of 27F16, human IgG4 constant domain, hinge Cys->Ser) (Fab, V domains shown)
VH: EVQLVESGGDFVKPGGSLKLSCAASGFTFNNYGMSWVRQTPDKRLEWVAAISSGVTYTYYPDTVKGRFTISRDNAKNTLYLHMSSLKSEDTAMYYCGRHDDYGNHFDYWGQGTTLTVSS
VL: DIVMTQSPSSLAMSLGQRVTMNCKSSQSLLNSHNQKNYLAWYQQKPGQSPKLLVYFASSRESGVPDRFIGSGSGTDFTLTISSVQAEDLADYFCQQHYSTPFTFGSGTKLEIKR
notes: murine variable domains, human IgG4 constant domain (IgG4-Ser), human kappa
Consider B1, for which, in assay [1], the “max % inhibition of TNFalpha, donor 1” value was found to be 3.9% and the “max % inhibition of TNFalpha, donor 2” value came out at 10%. In assay [2], the IC50 (usually the concentration that inhibits the measured activity by half) was determined as 5.11 nM and the max percentage inhibition worked out at 33%.

B2: 0118 (chimeric Fab of 27F16, human IgG1 constant domain) (Fab, V domains shown)
VH: EVQLVESGGDFVKPGGSLKLSCAASGFTFNNYGMSWVRQTPDKRLEWVAAISSGVTYTYYPDTVKGRFTISRDNAKNTLYLHMSSLKSEDTAMYYCGRHDDYGNHFDYWGQGTTLTVSS
VL: DIVMTQSPSSLAMSLGQRVTMNCKSSQSLLNSHNQKNYLAWYQQKPGQSPKLLVYFASSRESGVPDRFIGSGSGTDFTLTISSVQAEDLADYFCQQHYSTPFTFGSGTKLEIKR
As for B2, in assay [3], the “IFN-γ, TL1A-costimulated lymphocytes, Fab 0.003 µg/mL” value was 132 ng/mL; the “IFN-γ, TL1A-costimulated lymphocytes, Fab 0.01 µg/mL” value stood at 134 ng/mL; the “IFN-γ, TL1A-costimulated lymphocytes, Fab 0.03 µg/mL” value is 158 ng/mL; the “IFN-γ, TL1A-costimulated lymphocytes, Fab 0.1 µg/mL” value turned out to be 151 ng/mL. Further, in assay [3], the “IFN-γ, TL1A-costimulated lymphocytes, Fab 0.3 µg/mL” value is 124 ng/mL and the “IFN-γ, TL1A-costimulated lymphocytes, Fab 1.0 µg/mL” value came to 132 ng/mL. Further, in assay [4], the “IFN-γ, TL1A-costimulated RA SF cells, Fab 0.003 µg/mL” value was determined as 2310 pg/mL; the “IFN-γ, TL1A-costimulated RA SF cells, Fab 0.01 µg/mL” value is 2280 pg/mL; the “IFN-γ, TL1A-costimulated RA SF cells, Fab 0.03 µg/mL” value stood at 2080 pg/mL; the “IFN-γ, TL1A-costimulated RA SF cells, Fab 0.1 µg/mL” value stood at 2100 pg/mL. For the same molecule, in assay [4], the “IFN-γ, TL1A-costimulated RA SF cells, Fab 0.3 µg/mL” value was found to be 2120 pg/mL and the “IFN-γ, TL1A-costimulated RA SF cells, Fab 1 µg/mL” value is 2230 pg/mL.

B3: 0124 (chimeric Fab of 28F26, human IgG4 constant domain, hinge Cys->Ser) (Fab, V domains shown)
VH: EVKVVESGGGLVKPGGSLKLSCAASGFVFSSYDMSWVRQIPEKRLEWVAAISSGDYYTYYPDSVKGRFTISRDDARNTLYLQMSSLRSEDTALYYCARHRGGNYPQYAMDYWGQGTSVTVSS
VL: DILLTQSPASFAVSLGQRATISCRASKSVSTSGYNYIHWYQQKPGQPPKLLIYLTSNLESGVPARFSGSGSGTDFTLNIHPVEEEDAATYYCQHSRELPFTFGSGTKLEIKR
notes: murine variable domains, human IgG4 constant domain (IgG4-Ser)
As for B3, in assay [1], the “IC50, TNFalpha inhibition, TL1A-activated CD4+ T cells, donor 1” value (shortened to “IC50, TNFalpha inhibition … donor 1”) worked out at 1.11 nM; the “IC50, TNFalpha inhibition, TL1A-activated CD4+ T cells, donor 2” value (“IC50, TNFalpha inhibition … donor 2” for short) turned out to be 1.21 nM; the “IC50, TNFalpha inhibition, average (n 4)” value was 1.33 nM; the “max % inhibition of TNFalpha, donor 1” value was found to be 52.3%. Also, the “max % inhibition of TNFalpha, donor 2” value in assay [1] was determined as 41.3%. Moreover, in assay [5], the “GM-CSF, fold downregulation, +TL1A + anti DR3 Fab” value is 7.9 fold; the “IFNγ, fold downregulation, +TL1A + anti DR3 Fab” value is 1.1 fold; the “IL-6, fold downregulation, +TL1A + anti DR3 Fab” value amounted to 13.3 fold; the “TNFα, fold downregulation, +TL1A + anti DR3 Fab” value turned out to be 5 fold. Besides, inhibition in assay [6] was half-maximal at 2.4 nM (IC50 at 40 ng/ml TL1A, I5 reporter cells). Also, in the assay with DR3 (CRD1)-Fc, binding was put at a Kd of 0.267 nM; the koff (commonly the first-order rate constant of dissociation) was 0.000201 s⁻¹; the kon (as a rule, a measure of how fast the partners come together) is 752000 M⁻¹ s⁻¹. In assay [2], this molecule gave an IC50 of 1.3 nM and a max percentage inhibition of 79%.

B4: 0169 (humanized IgG1 Fab of 0072; HC T28A S49A Y91; LC Q3A T5A S60A M4L) (Fab, V domains shown)
VH: EVQLVESGGGLVQPGGSLRLSCAASGFTFSNYDMSWVRQAAGKGLEWVSAFSSDGYTFYPGAVKGRFTISRENAKNSLYLQMNSLRAGDTAVYYCARHADYANYPVMDYWGQGTLVTVSS
VL: DIALAQSPSSLSASVGDRVTITCRASKSVSTSGYSYMHWYQQKPGKAPKLLIYLASNLEAGVPSRFSGSGSGTDFTLTISSLQPEDFATYYCQHSRELPLTFGGGTKVEIK
As for B4, in assay [3], the “IFN-γ, TL1A-costimulated lymphocytes, Fab 0.003 µg/mL” value was found to be 121 ng/mL; the “IFN-γ, TL1A-costimulated lymphocytes, Fab 0.01 µg/mL” value was 138 ng/mL; the “IFN-γ, TL1A-costimulated lymphocytes, Fab 0.03 µg/mL” value stood at 81 ng/mL; the “IFN-γ, TL1A-costimulated lymphocytes, Fab 0.1 µg/mL” value was determined as 58 ng/mL. Moreover, in assay [3], the “IFN-γ, TL1A-costimulated lymphocytes, Fab 0.3 µg/mL” value was found to be 31 ng/mL and the “IFN-γ, TL1A-costimulated lymphocytes, Fab 1.0 µg/mL” value stood at 55 ng/mL.

B5: 0219 (humanized Fab of 27F44, IgG1, S49A HC) (Fab, V domains shown)
VH: EVQLVESGGGLVQPGGSLRLSCAASGFTFSNYDMSWVRQATGKGLEWVAAFSSDGYTFYPGSVKGRFTISRENAKNSLYLQMNSLRAGDTAVYYCARHADYANYPVMDYWGQGTLVTVSS
VL: DIQMTQSPSSLSASVGDRVTITCRASKSVSTSGYSYMHWYQQKPGKAPKLLIYLASNLESGVPSRFSGSGSGTDFTLTISSLQPEDFATYYCQHSRELPLTFGGGTKVEIK
notes: Human IgG1 constant part
For B5, in the assay with DR3 (CRD1)-Fc, the affinity, expressed as Kd, was 0.00955 nM; the koff is 3.06e-05 s⁻¹; the on-rate (kon) came out at 3.2e+06 M⁻¹ s⁻¹.

B6: 0130 (recombinant murine Fab of 45F36) (Fab, V domains shown)
VH: EVQLVESGGGLVKPGGSLKLSCAASGFTFSSYAMSWVRQSPDKRLEWVAEISSGDTYTYYPDTVTGRFTISRDNAKKTLYLEMSGLRSEDTAMYYCARDREAYYGQQYVMDYWGQGTSVTVSS
VL: DIVLTQSPASLAVSLGLSVTISCRASESIEYSGTSFLQWYQQKPGQPPRLLIYGSSTVESGVPARFSGSGSGTDFSLNIHPVEEDDSAMYFCQQSRRLPWTFGGGTKLEIKR
notes: murine Fab; also called 00130
Take B6: in assay [1], the “IC50, TNFalpha inhibition … donor 1” value turned out to be 0.539 nM; the “IC50, TNFalpha inhibition … donor 2” value was determined as 1.77 nM; the “IC50, TNFalpha inhibition, average (n 5)” value stood at 0.642 nM; the “max % inhibition of TNFalpha, donor 1” value is 84.4%. Besides, the “max % inhibition of TNFalpha, donor 2” value in assay [1] was 78%. Besides, half-maximal inhibition in assay [6] (IC50 at 40 ng/ml TL1A, I5 reporter cells) was put at 1.4 nM. Also, in the assay with DR3 (CRD1)-Fc, the equilibrium dissociation constant (Kd) – broadly, the equilibrium constant for the complex coming apart – is 0.12 nM; the koff was found to be 0.000208 s⁻¹; the kon turned out to be 1.74e+06 M⁻¹ s⁻¹. In assay [2], the IC50 was 1.34 nM and the max percentage inhibition is 73%.

B7: 0143 (chimeric Fab of 44F434, human IgG4 constant domain, hinge Cys->Ser) (Fab, V domains shown)
VH: EVQLVESGGDLVMPGGSLKLSCAASGFIFSSYGLSWIRQTPDKRLEWVATISGGDSYTYYPDSVKGRFTISSDNAKNTLYLQMTSLKSEDTAMYYCATQREIYYGTYYALDHWGQGTSVTVSS
VL: DIQMTQTTSSLSASLGDRVTISCRASQDINNYLNWYQQKPDGTVKLLIYYTSRLQSGVPSRFSGSGSGTDYSLTISSLEQDDIATYFCQQGSPLPWTFGGGTKLEIKR
notes: IgG4-Ser, chimeric
With B7, in assay [1], the “IC50, TNFalpha inhibition … donor 1” value amounted to 0.148 nM; the “IC50, TNFalpha inhibition … donor 2” value was found to be 0.074 nM; the “IC50, TNFalpha inhibition, average (n 5)” value is 0.125 nM; the “max % inhibition of TNFalpha, donor 1” value was determined as 76.7%. In addition, in assay [1], the “max % inhibition of TNFalpha, donor 2” value is 66%. In addition, the half-inhibitory concentration (IC50) at 40 ng/ml TL1A, I5 reporter cells in assay [6] amounted to 0.29 nM. In the assay with DR3 (CRD1)-Fc, the dissociation constant (Kd) worked out at 0.00147 nM, the off-rate (koff) was determined as 5.1e-06 s⁻¹ and the kon turned out to be 3.49e+06 M⁻¹ s⁻¹. Besides, in assay [2], the IC50 was 0.12 nM and the max percentage inhibition was 76%.
